In US20240285816A1, “FORMULATIONS FOR RADIOTHERAPY AND DIAGNOSTIC IMAGING” (priority 2016, published 2024):

Tests used:
[1] = Single dose preclinical toxicology study, intravenous injection; type: in vivo, Sprague Dawley rats
Method: A single dose preclinical toxicology study in Sprague Dawley rats was conducted to evaluate the potential toxicity of SARTATE when administered via intravenous injection. Testing was performed on solutions of SARTATE-copper-complex (SCC) and unlabeled SARTATE ligand (SL) at a 1:1 ratio. The study was conducted according to the requirements of OECD GLP Principles.
The test item was administered once to six groups of 10 rats (5/sex) at three doses of 50, 250 and 1000 μg/kg in the vehicle at a volume of 3 mL/kg. Two vehicle control groups of 10 rats (5/sex) were administered the vehicle only (10% ethanol in 0.9% sodium chloride and 0.056% gentisic acid) at the same volumetric dose.
Four groups of rats (one vehicle and three test item treated 50, 250 and 1000 μg/kg) from the main study were sacrificed on Day 2.
The following parameters were evaluated: mortality, daily clinical observations, weekly body weights, weekly food consumption, haematology, biochemistry, urinalysis, organ weights and gross necropsy on day of sacrifice. Extensive histopathology was performed on all animals.

[2] = type: in vitro ADME; settings: human, serum
[3] = HPLC analysis of radiochemical purity and stability of the formulation (gamma scintillation detector); type: physicochemical; settings: post-manufacture
From the text: The formulations of a radioisotope-ligand complex referred to herein are stable in solution and under physiological conditions for a time. The stability of the formulation relates to the stability of the complex, where the radioisotope may undergo dissociation or the complex may undergo radiolysis. The stability of the complex can be measured by considering the radiochemical purity of the formulation. Radiochemical purity is defined as the amount of the radioisotope complexed by the sarcophagine ligand expressed as percentage of the total amount of the radioisotope present in the formulation. The radioisotope may be present in the formulation as a complex with the sarcophagine ligand, as a free radioisotope or as part of a radiolysis product.
The solution is then filtered through a solid phase extraction cartridge. […] HPLC analysis of the solution obtained can be seen in FIG. 1, showing over 97% radiochemical purity. Further HPLC analysis of the same product solution obtained over multiple time points can be seen in FIG. 2, showing that the radiochemical purity remains >90% for more than 11 hours.
The solution is then filtered through a solid phase extraction cartridge. […] HPLC analysis of the solution obtained can be seen in FIG. 3, showing over 98% radiochemical purity. […]

[4] = in vivo; parameters: species or system Balb/c nude mice; settings: Balb/c nude, mouse
[5] = test item SCC and SL 1:1, 2-day and 15-day experimental periods

## CC(O)[C@H](NC(=O)[C@@H]1CSSC[C@H](NC(=O)[C@@H](Cc2ccccc2)NC(=O)CCCC(=O)NC23CNCCNCC(C)(CNCCNC2)CNCCNC3)C(=O)N[C@@H](Cc2ccc(O)cc2)C(=O)N[C@H](Cc2c[nH]c3ccccc23)C(=O)N[C@@H](CCCCN)C(=O)N[C@@H](C(C)O)C(=O)N1)C(=O)O (stereo partly drawn) [SARTATE, MeCOSar-D-Phe-Cys-Tyr-D-Trp-Lys-Thr-Cys-Thr-OH]
[1]; both sexes, Sprague Dawley, in vivo, intravenous, from rat NOAEL of 1 mg/kg, read-out: Human Equivalent Dose (HED) of the NOAEL
  Human equivalent dose of the NOAEL at 14 days: 0.16 mg/kg
[1]; both sexes, in vivo, iv, single i.v. dose, Sprague Dawley rat, read-out: No Observed Adverse Effect level (NOAEL)
  NOAEL at 14 days: 1 mg/kg
[1]; intravenously at 50, 250 and 1000 μg/kg
  toxic effects: no toxic effects
[1]; maximum total dose 0.02 mg per patient
  safety margin of NOAEL over the maximum human dose: 50 times
[1]; patient with a weight of 70 kg
  Human Equivalent Dose as total dose: 11.2 mg
[1]; test item SCC and SL 1:1
  haematology, blood biochemistry and urine analysis: no test item-related effects
  organ weight and histopathology: no evidence of any test item-related effect
[1]; [5]
  body weight gains versus vehicle control: comparable body weights gains
  clinical abnormalities: no clinical abnormalities related to treatment
  feed intake versus control: similar
[1]; test item SCC and SL 1:1, all animals
  macroscopic abnormalities at necropsy: No macroscopic abnormalities
[1]; test item SCC and SL at 1:1 ratio, 50, 250 and 1000 μg/kg i.v. single dose, treatment and recovery periods
  mortality: No mortalities related to treatment

## CC(O)[C@H](NC(=O)[C@@H]1CSSC[C@H](NC(=O)[C@@H](Cc2ccccc2)NC(=O)CCCC(=O)NC23CNCCNCC(C)(CNCCNC2)CNCCNC3)C(=O)N[C@@H](Cc2ccc(O)cc2)C(=O)N[C@H](Cc2c[nH]c3ccccc23)C(=O)N[C@@H](CCCCN)C(=O)N[C@@H](C(C)O)C(=O)N1)C(=O)O (stereo partly shown) [^64Cu-SARTATE, metal not drawn]
[2]
  time for which the complex remains intact (metabolic stability): up to 45 hours
[3]
  time for which stability of the formulation is observed: up to 45 hours
[4]; blood
  tissue uptake at 2 h: 0.4 ± 0.2 %ID/g
  tissue uptake at 24 h: 0.1 ± 0.02 %ID/g
[4]; kidney uptake
  tissue uptake at 24 h: 10.1 ± 3.5 %ID/g
[4]; muscle accumulation
  tissue uptake at 24 h: 0.1 ± 0.01 %ID/g
[4]; tumour uptake
  tissue uptake at 24 h: 31.4 ± 14 %ID/g
[4]; uptake by the liver
  tissue uptake at 2 h: 3.1 ± 1.3 %ID/g
[4]; uptake in lungs
  tissue uptake at 24 h: 0.6 ± 0.3 %ID/g
[4]; uptake in spleen
  tissue uptake at 24 h: 0.8 ± 0.2 %ID/g
